Assay results: the DeepSol protein solubility set

Assay: soluble on expression in E. coli; label from the status in PepcDB or PDB records

| Sequence | soluble on expression in E. coli |
| --- | --- |
| MSLQYESHSQLIIKSSDGGSSFDPSSLLMAAGVSGASGGTESQLVEAYIQSADMIKYLDETIGLREHYMSDKADMFSGLSSSHKQEDFYKFYLDHIEVSVDSASSVISLRTRAFDAEYAKIINQAIVDKAEEFINNINNDLAKSKLTFAKGEHEIVEQKLQQAKTEILSFQSKYNVLDPSAEGAAFQQIAFSLQATLAQKKAELSTMSTMMSNVAPEVINIKREIAALQKEVEKQKERISTAEGESEALSVSELMAQYSNLQVQLQLAIQAYSSSLITLENARVEAYQKLQHLVTVESPTLPDDNAYPTEGHHHHHH | soluble |
| GMTESDRDYIQSIERGFAVLLAFDAQRPNPTLAELATEAGLSRPAVRRILLTLQKLGYVAGSGGRWSLTPRVLSIGQHYSESHALIEAAMPRLLEVAEKTQESASLGVLDGADVVYAARVPVRRIMSINVSVGTRVPAYATSMGRALLAWAPADVVERVVAESTFQKLGPETIGTAAELERELAKVREQGFALTSEELEKGLISLAAPVHDAGGTVVGVVACSTSSARNTPAQFREQAVPCVLAAAAALSADMGFAG | soluble |
| MAHHHHHHMLQWEWPTSLCAERRELIRAAVERAIRNSMAEGSDGQIRGTVNVDELNLGSNPPEVTLSGIRMLSAERTVIMVKVRYTGDFFIRLSGLEVNLDMVGSGAEEADNNFALPFFCPFEMTLRDILIDGMVAIEILQELEENVQWGKCADVPVAPLATTVRSRKNTNGMRPPCRAGTPSTRHRSGYGVLLGGGGRGAMRLPGVLDSIDGSLSSVDMEGASEGHPRHSLRVRNVSPPFFDILSTKVLVKQRVVKMQLFGDPLKSFRVLSNFGSVQGADCKAEQTIRKLIKPAIEQLIEEGIIFNI | not soluble |
| MSLETLRIANRMLGYAAYEWRLSSLDGQKVMSSSGICLEVDTCLADERRYVSGENRPEMAIICSGIDVDQHVNKSVNAWLREAYNRGIAIGSLCTAAHILAQAGLLNGKRCAIHWENLPGFSEAFPQVEVYADLFEVDSNIYTCAGGTASLDMMLSLIGQDFGENLVNRVCEQQLTDRVREGHHHHHH | not soluble |
| MREAMYWKPLGDGRVRCELCPLRCIIDEGKRGSCKIRINKGGKLYTLNYGKVSSIALDPIEKKPLFHFWPGSCALSIGTVGCNMHCKHCQNWEISQADESFPYLQDATPEAIVSLAKHYECESIAYTYNEPTIWYEFVLDTAKLARKEGLNNILVTNGYINEEPFRELAPYIDAMNIDIKAFDDKFYMKIASVPSGEPSRRIAEIAKKEFKIHVELTYLIIPTLNDKEEEIREFARWVVENLGDDTPVHFSRFFPHYKLLNLPPTPIETLEKAYKIAKEEGLKFVYLGNVPGHPGENTYCPSCGKLLIERWGFDIIRYDIVDGKCKYCGEKIPIVGKYQKKKYRGMWW | soluble |
| MGSDKIHHHHHHMSLLVKAYRYGYTIARVTPASACWRYVGFAAYRLGTAEVVHVHEPSREVCIVVLTGTVDIETADTTWRSLGSRDSVFEDAAPYAVYLPPNVRATVRACRDAEIGVASAPARGGYPARLIEPASMKRSTRGKGLNTRYVCDILPQTEPAESLLVVEVRTPGGHASSYPPHKHDTDNVPQESSLEETYYHRLDPPQGFAFQRVYTDMRDIDESMAVEDHDVVMVPRGYHPVVVPYGYDSYYLNVMAGGKRVWHFRNDPAHEWIINKDA | not soluble |
| MGSDKIHHHHHHMSDIHKKIKKKQFAPLYLLYGTEAFFINETIKLITTEALEEEDREFNVVTYDLEEAYLEDVVEDARTLPFFGERKVLLIKSPLFLTSQKEKLEQNIKILEEYIGEPSPFSILVFVAPYEKLDERKKITKLLKKTADVVEANAMQVQDVQKWIVARADEVHVHIDHAAVSLLLELVGSNVTMLAKEMDKLTLYVGMGGDITPKLVAELVPKSVEQNVFALTEKVVKKDIAGAMQILDGLFTQQEEPIKLLALLVSQFRLLHQVKELQQRGYGQNQIASHIGVHPYRVKLAMNQTKFFSFEELKKVIMELAEADYSMKTGKMDKKLVLEFFLMRLNHM | not soluble |
| MKFVVASYGTRGDIEPCAAVGLELQRRGHDVCLAVPPNLIGFVETAGLSAVAYGSRDSQEQLDEQFLHNAWKLQNPIKLLREAMAPVTEGWAELSAMLTPVAAGADLLLTGQIYQEVVANVAEHHGIPLAALHFYPVRANGEIAFPARLPAPLVRSTITAIDWLYWRMTKGVEDAQRRELGLPKASTPAPRRMAVRGSLEIQAYDALCFPGLAAEWGGRRPFVGALTMESATDADDEVASWIAADTPPIYFGFGSMPIGSLADRVAMISAACAELGERALICSGPSDATGIPQFDHVKVVRVVSHAAVFPTCRAVVHHGGAGTTAAGLRAGIPTLILWVTSDQPIWAAQIKQLKVGRGRRFSSATKESLIADLRTILAPDYVTRAREIASRMTKPAASVTATADLLEDAARRAR | not soluble |
| MLAKIIMKNFKSFKNETVIDFTRINYKFLENNVSNNGVLKGVAFYGANASGKSNVLWAIRFLLDELFGEEKNPVTFMKCLFSDEPEFSLQYFFVIESREIHYLIDFHTEKGIINEELYLDRKLLLQRMGSTAKSGITEKKVYTDLNNKVLFLRTVYFNTGFSGDDKDNNANNNILRQWFDYMQNSIYVNPFLHRGIAYGKQDVVLNKYLENEGVKEINRFFTKYNFEYTLDYLNERKVKDVTEIVNDDNIKLVFFNRKGVNVPIPYVLESHGNQNLLNILPCFLRVVQNSGMLLVDEFSGGLHNELERLLVNYFFLEHHHHHH | not soluble |
| MSLEKELVTWFNILNKPPLEYLKGVEDFYNAYGEVLEMQDRHAHLLSYKDDDYLHVILCASILHHYSDQDIETLKELLVKFYYQDWVAGQTKTTRSQTCCNIINVLKEKKSMDYITSIVKEYLDDKNITQRFKDNLKDSNLYTKFYFINGKTAKKNSWVKPILILVEYFMSDNANPACIKMDDDLHVERILPQNPDPSSQWMKDFSEEERGLYTHSLANLTLLGGKKNTKALSQALNQDFKEKKEIYMGKTIMLDNKKTFRVMTCYDMTKNDVCRYTEWTPTSLEKRKESEGHHHHHH | not soluble |
| MSLKIAIVGGPTAVGKTDIMIEVCEEIGAEIISMDSRQIYRYMDIGTAKPTPEQRKRVLHHMIDIIDPDEYYNAFMYRKDSLRAMEDVLRRGKIPVYVGGTGLYADALVRGIFEGVPADENIRKELRELERREPGILRKMLEELDPEAATRIHPNDLKRTIRALEVYMKTGRRISELQKEAKGDDRFFIIVLTRERYELYERINKRVDKMIEMGLVDEVKRLLGMGYSKDLNSMKTIGYKEVIDYLEGKYDFDKMVHLIKRNTRHFARRQIIWFKRYKEAVWYNLTFEDVGEVKEKLKKLIVENFSVEGHHHHHH | soluble |
| GMASAIIETAIPQSEMTASATSEEGQDPASSAIDGNINTMWHTKWNGSDALPQSLSVNLGKARKVSSIAITPRTSGNNGFITKYEIHAINNGVETLVAEGTWEENNLVKTVTFDSPIDAEEIKITAIQGVGGFASIAELNVYE | soluble |
| MGSDKIHHHHHHMNEQFERLMVRVESLMARIESVLPQPLSAPDWTASVAYRYRKRGSGHGSLEPVRHLGAMRLTDLKEIDGQKDRIRRNTEQFVSGKPANNVLLTGSRGTGKSSLIKACLNEYSARGLRLIEVDKADLTDLPDIVDVVSGLPEKFIVFCDDLSFEEGEPGYKALKSILDGSIAAATPNVLIYATSNRRHLLPEYMMENLTYTHTEDGEVHPGEVVEEKISLSERFGLWVSFYPFSQDEYLTIVAQWLSSFGVNAEAISAARPASLVWALERGSRSGRVAYQFARDYAGQHAGTVQ | not soluble |
| MSLKKETLSDRLNKAMELAGMSQGALAKASGVAQPTIWRLTSGNARGSTKIVEIANALGVNSEWLSTGIGPMKKDGTTPINASPSSNTFKIDILDLEVSAGPGVINREFVEILRSVEYSQDDARHMFDGRKAENIRIINVRGDSMSGTIEPGDLLFVDVSIKNFDGDGIYAFLYDDTAHVKRLQKMKDKLLVISDNKSYSAWDPIERDEMNRVFVFGKVIGSMPQTYRKHGEGHHHHHH | soluble |
| FHMNRVTGELGNRPLFSIADFTFYQGISCILGDNGVGKSTLFRSILQFQKYKGSITWKGSVLKKKKSLYRDLTGVVQEAEKQFIRVSLREELQLDGPDSERNQRIFQALRYFDLEQAVDKSPYQLSGGQQKILQLLTILTSKASVILLDEPFAGLDDRACHYFCKWIVEERNQGRSFLLISHRLDPLISVVDYWIEMTSQGLRHVKEVTITKPLTSQSSNTQGEVR | soluble |
| MSLNTLKEVNKIIQYLNNIHNEPIGNQARVLCGKDAAKHLFLVASGADSLSIGEYEILSQIRSTIDMFKKLGFSGKYLQIFFERAIKVGRKVREETSISKGKVGIYSLAIDEAKKRFNDFYDRRILVIGAGEMAQKITSMLHNEGAKDVTIMNRTIEKAKQLALKFGYNYEKLDLDKLGNFDVAFISIYHENLRLENKWNTLIVDITVPPLFTGNNVITLEELERISNLNFKAREEELAKINKLVEDGINELLYDYKKEIYTEFMSKIMKRIETIRENEILRAYKELEKEGHHHHHH | not soluble |
| MGSDKIHHHHHHMFPFERQNKIIHLLDQNSKITVPELSRILDVSISTIRNDLSSLEESGMIKKVHGGAVLLKSEEKFTNFNDRIIRNIEEKEAIAKEAATLVKNNQTIILDASSTALALAKELHGFSRLTVITSGLYTAIELKDNPNISVILTGGIVTTNSFTLEGILGANLIENIHADLCFMSAKGFTMEEGLTDFNIYETELKRLLAKRTNKLIALLDHTKMGVISTASITAAENIDLLITDNKINKALYKKFQDAGLPVKIAE | not soluble |
| MGSTSSLYAAIDLGSNSFHMLVVREVAGSIQTLTRIKRKVRLAAGLNSENALSNEAMERGWQCLRLFAERLQDIPPSQIRVVATATLRLAVNAGDFIAKAQEILGCPVQVISGEEEARLIYQGVAHTTGGADQRLVVDIGGASTELVTGTGAQTTSLFSLSMGCVTWLERYFADRNLGQENFDAAEKAAREVLRPVADELRYHGWKVCVGASGTVQALQEIMMAQGMDERITLEKLQQLKQRAIHCGRLEELEIDGLTLERALVFPSGLAILIAIFTELNIQCMTLAGGALREGLVYGMLHLAVEQDIRSRTLRNIQRRFMIDIDQAQRVAKVAANFFDQVENEWHLEAISRDLLISACQLHEIGLSVDFKQAPQHAAYLVRNLDLPGFTPAQKKLLATLLLNQTNPVDLSSLHQQNAVPPRVAEQLCRLLRLAIIFASRRRDDLVPEMTLQANHELLTLTLPQGWLTQHPLGKEIIAQESQWQSYVHWPLEVH | soluble |
| MGSDKIHHHHHHMAKTNPGRFFEDYTVGQTLHHAVPRTVTNGERALYHALYPARHALYSSDAFAQSCGLPGSPIDDLAAFHVVFGKTVPDVSLNAVANLGYAEGRWLKPVYAGDTLRSVSEVIGLKQNSNGKTGVVYVRTRGLNQRDETVMEYVRWVMVRKRDLDAPAPEIVVPELKKALAPNDLVVPEGLDFTAYDFALAGEPHRWGDYAVGETIDHVDGVTVEEAEHMLATRLWQNTAKVHFDLTFRPDGRLIYGGHVISMARALSFNGLANAQIIVGLNGGAHANPCFAGDTIKAWTEVLDKAETAAPGVGALRLRLVATKGGAPFALHGEDGKYLPEVLLDLDYWVLMPK | not soluble |
| MAHLQYRDGDWYLHASMRKVEAGEGTSESESKHRTVLGVDLGVNNLAVASTGRFWSAGEFNHWRREYEKRRALLQQCGSRHAHENIESVGQKEYGRFEIYLHTVANELIEEAIENDCSHIVFEDLTHIRENIPEATWQHVWAFRRLYEYVEYKAKENGVEAVQVDPRNTSKRCLTCGFTHDDNRNGESFKCQQCGYENHADYNASKNIGLQYLRRRQNADDGGAPVDVRLNRGTLNVSGEYAHPASTEALEHHHHHH | not soluble |
